Measured values from patent publication US20220017630A1 (JIANGSU SIMCERE PHARMACEUTICAL, published 2022).
Residue numbers refer to the chain shown, from its start.

B1: TNFR2 antibody #224 (antibody, V domains shown)
VH: EVQLQESGPEIVKPGASVKLSCTASGFNNKDIYMHWVKQRPEQGLEWIGRIDPATGNTKHDPKFQDKATLSSDTSSNTAYLQFSSLTSEDTAVYYCAHSPYGDFGAMDYWGQGTTVTVSS
VL: DIQMTQSPAIMSASLGERVTMTCTASSSVSSNYLHWYQQKPGSSPKLWIYSTSNLPSGVPARFSGSGSGTSYSLTISSMEAEDAATYYCHQYHRSPWTFGGGTKLEIK
B2: TNFR2 antibody #352 (antibody, V domains shown)
VH: EVQLQESGPGLVAPSQSLSITCTVSGFSLTSYGVHWVRQPPGKGLEWLVVIWSDGGTTYNSALKSRLSISKDNSKSQVFLKMNSLQTDDTAMYYCARHDDDGYYAMDYWGQGTTVTVSS
VL: DIVLTQSPSLMSASPGEKVTMTCSASSSVGYMYWYQQKPRSSPKPWIYLTSNLASGVPARFSGSGSGTSYSLTISSMEVEDAATYYCQQWSSDPFTFGSGTKLEIK
B3: TNFR2 antibody #365 (antibody, V domains shown)
VH: EVQLQESGPGLVQPSQSLSITCTVSGFSLTSYGVHWVRQSPGKGLEWLGLIWSDGSPDYSAAFISRLSINKDNSKSQVFFKMNSLQADDTAIYYCARNDDGGDYVMDYWGQGTTVTVSS
VL: B2 VL with D1E, S9A, G30S, V79A, S91T, D93N, F95L, S99A
B4: TNFR2 antibody #395 (antibody, V domains shown)
VH: B3 VH with G10V, G33S, L50V, S56G, P57T, N70S, V105A
VL: B2 VL with D1E, S9A, G30S, V79A, D93N, F95L, S99A

molecular target: T1, mouse TNFR2 (mouse, UniProt P25119 23-258, limits assumed); experiment: ELISA
T1 sequence (looked up): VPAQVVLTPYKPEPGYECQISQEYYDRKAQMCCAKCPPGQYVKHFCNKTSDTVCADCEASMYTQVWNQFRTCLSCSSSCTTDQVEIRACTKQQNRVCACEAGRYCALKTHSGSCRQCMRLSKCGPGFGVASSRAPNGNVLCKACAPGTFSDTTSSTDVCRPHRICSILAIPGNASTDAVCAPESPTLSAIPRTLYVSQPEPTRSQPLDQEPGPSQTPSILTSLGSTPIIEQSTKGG

Binder	binding result
B1	no binding (tested: 28 ng/ml)
B2	no binding (tested: 28 ng/ml)
B3	no binding (tested: 28 ng/ml)
B4	no binding (tested: 28 ng/ml)

molecular target: T2, human CREG-His protein (human, UniProt O75629 32-220, limits assumed); experiment: ELISA
T2 construct: Control antigen in ELISA; also called control human CREG-His
T2 sequence (looked up): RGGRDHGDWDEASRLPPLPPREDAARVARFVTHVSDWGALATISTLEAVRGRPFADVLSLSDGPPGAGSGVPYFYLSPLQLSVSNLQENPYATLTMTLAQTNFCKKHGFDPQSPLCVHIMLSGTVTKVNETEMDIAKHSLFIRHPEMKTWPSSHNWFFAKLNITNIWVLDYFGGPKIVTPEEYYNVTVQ

Binder	binding result
B1	no binding (tested: 28 ng/ml)
B2	no binding (tested: 28 ng/ml)
B3	no binding (tested: 28 ng/ml)
B4	no binding (tested: 28 ng/ml)

molecular target: T3, Human TNFR2 recombinant protein (Sino 10417-H08H) (human, UniProt P20333 23-257); experiment: ELISA, coated antigen 0.5 ug/ml, antibody 28 ng/ml
T3 construct: also called hTNFR2 (His tag)
T3 sequence (looked up): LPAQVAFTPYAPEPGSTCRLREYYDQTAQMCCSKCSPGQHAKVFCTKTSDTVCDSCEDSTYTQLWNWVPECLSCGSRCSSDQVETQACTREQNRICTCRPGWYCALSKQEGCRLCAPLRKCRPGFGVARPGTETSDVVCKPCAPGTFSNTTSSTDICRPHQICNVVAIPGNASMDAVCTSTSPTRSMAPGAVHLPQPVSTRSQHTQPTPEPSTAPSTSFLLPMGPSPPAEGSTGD
Procedure: (§1) An microplate was pre-coated with 100 μl/well of 0.5 μg/ml human TNFR2 or cynomolgus TNFR2 (the same antigen protein as in Example 4). […] A mouse anti-human IgG Fc-HRP working solution (1:10000 dilution) was added to the plate at 100 μl/well after plate washing, and incubated with shaking at room temperature for 1.0 h. The plate was washed again, a HRP substrate TMB was added for color development prior to the termination of the reaction by adding termination solution. An microplate reader was used to read the absorption value.

Binder	ELISA OD [OD]
B1	2.23
B2	3.12
B3	3.19
B4	3.17

molecular target: T4, cynomolgus TNFR2 (Sino 90102-C08H) (cynomolgus, UniProt A0A2K5VET2 132-366); experiment: ELISA, coated antigen 0.5 ug/ml, antibody 28 ng/ml
T4 construct: also called CynoTNFR2 (His tag)
T4 sequence: T3 sequence (looked up) with S16G, S36P, P117Q, N164H, E210A, S216G, M223V
Procedure: as §1

Binder	ELISA OD [OD]
B1	2.66
B2	3.12
B3	3.15
B4	3.15

molecular target: T3, Human TNFR2 recombinant protein (Sino …); experiment: SPR Biacore, antibody on Protein A chip, TNFR2 analyte
Procedure: (§2) In this experiment, Protein A chip was used, and the time required for the chip to capture the diluted antibody was determined by manual run, so that the Rmax of the saturated binding antigen was 50 RU. Human TNFR2 (Sino 10417-H08H) and cynomolgus TNFR2 (Sino 90102-C08H) were diluted to 32, 16, 8, 4, 2 nM. The affinity of antibody and antigen was measured by multi-cycle kinetics. In each cycle, anti-TNFR2 antibodies were injected prior to the injection of gradient concentrations of TNFR2 protein allowing the occurrence of antibody-antigen association and dissociation. After each cycle, the Protein A chip was regenerated with Glycine pH1.5 (to remove the protein on the chip). BIAcore T200 analysis software was used to calculate the affinity KD of antibody binding to antigen.

Binder	Kd [nM]	koff [s⁻¹]	kon [M⁻¹ s⁻¹]
B1	0.101	2.36e-05	233000
B2	1.41	0.00225	1.59e+06
B3	0.952	0.00209	2.2e+06
B4	0.14	0.000237	1.7e+06

molecular target: T4, cynomolgus TNFR2 (Sino 90102-C08H); experiment: as above
Procedure: as §2

Binder	Kd [nM]	koff [s⁻¹]	kon [M⁻¹ s⁻¹]
B1	0.273	0.000116	425000
B2	0.943	0.00243	2.57e+06
B3	0.752	0.00308	4.1e+06
B4	0.0977	0.000276	2.83e+06

molecular target: T5, human TNFR2 on the cell surface (CHO-TNFR2 cells; human Treg cells) (human, UniProt P20333 23-461); experiment: flow cytometry, blocking of TNFα-biotin on CHO-TNFR2 cells
T5 construct: whole, on cells; The assay field of each row says which cells; also called TNFR2-CHO cell; TNFR2 on Treg cells
T5 sequence (looked up): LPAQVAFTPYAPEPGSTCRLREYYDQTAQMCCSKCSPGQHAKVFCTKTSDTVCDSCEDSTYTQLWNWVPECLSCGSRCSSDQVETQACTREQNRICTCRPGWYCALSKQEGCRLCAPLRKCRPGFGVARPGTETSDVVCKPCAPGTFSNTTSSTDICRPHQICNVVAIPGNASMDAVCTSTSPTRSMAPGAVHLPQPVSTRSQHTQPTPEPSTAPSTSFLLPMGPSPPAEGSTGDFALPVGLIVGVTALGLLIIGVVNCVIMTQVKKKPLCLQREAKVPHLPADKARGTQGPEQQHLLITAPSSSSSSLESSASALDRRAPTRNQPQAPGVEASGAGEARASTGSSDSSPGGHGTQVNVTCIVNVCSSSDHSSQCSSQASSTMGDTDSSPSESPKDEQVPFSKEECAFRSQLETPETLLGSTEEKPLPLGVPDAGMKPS
Procedure: CHO cells that stably overexpressed human TNFR2 were used for experiments. The cells were resuscitated and passaged until in good state, and the expression level of human TNFR2 on the cells was assessed by FACS. Compared to the isotype control, the assay could be carried out when the fold change of mean fluorescence intensity (MFI) was more than 100 times.
CHO-TNFR2 cells were digested, washed twice with DPBS and stained with Live/Dead (L/D) at room temperature for 20 min, and then seeded at 1×10⁵ cells/50 μl/well. […] The diluted antibodies were added 50 μl/well into wells pre-seeded with cells, and gently blown and mixed to make the final concentrations of the antibodies to 20, 6.67, 2.22, 0.74, 0.247, 0.08, 0.027 and 0 nM, respectively followed by incubation at 4° C. for 30 min. […] After washing twice with the staining buffer, 100 μl/well of PE-streptavidin was added and incubated at 4° C. for 30 min. After additional washing with the staining buffer twice, 150 μl resuspended cells was analyzed using an flow cytometry. Taking the logarithmic value of the antibody concentrations as abscissa and the corresponding MFI value as ordinate, the inhibition curve of the antibody was drawn, and the IC50 value was calculated by four parameters fitting.

Binder	IC50 [µg/mL]
B1	0.128
B2	0.056
B3	0.041
B4	0.021
